Reference: patent US20240101708A1 (Genentech, published 2024)
Numbering of substitutions follows the chain as printed.

Biological target: T1, recombinant human RNF43 extracellular domain (human, UniProt Q68DV7 24-197)
T1 construct: extracellular domain; also called huRNF43; human RNF43 ECD
T1 sequence (looked up): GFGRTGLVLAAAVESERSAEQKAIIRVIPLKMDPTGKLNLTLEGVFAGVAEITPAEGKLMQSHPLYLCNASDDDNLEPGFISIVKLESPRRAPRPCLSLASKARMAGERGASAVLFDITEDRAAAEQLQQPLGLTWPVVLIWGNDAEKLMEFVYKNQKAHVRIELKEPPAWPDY
Assay: SPR Biacore 8K; antibody captured on Protein A; RNF43 ECD analyte; 25 C
Description: Antibodies were screened for binding to recombinant human RNF43 and ZNRF3 ECDs using a Biacore® 8 k instrument (GE Life Sciences). Briefly, antibodies diluted to 1 μg/ml in 1×HBSP buffer (Cytiva, BR100368) were captured on a Sensor Chip Protein A (GE Life Sciences) using a flow rate of 10 μl/minute and a contact time of 60 seconds. Binding of recombinant human RNF43 and ZNRF3 extracellular domain to the captured antibodies was analyzed at 25° C. using a single cycle kinetics method with a flow rate of 30 μl/minute, a contact time of 180 seconds and a dissociation time of 600 seconds. The concentration of recombinant human RNF43 and ZNRF3 extracellular domain in the single cycle kinetics were 0, 0.8, 4, 20, and 100 nM. Between cycles, the chip was regenerated using 10 mM Glycine HCl pH 1.5 injected for 30 seconds at 30 μl/minute. Data were evaluated using Biacore 8K Evaluation software (GE Life Sciences). Kinetic constants were obtained using a 1:1 binding model with the parameter RI set to zero. Cell surface ligase antibodies with sub-nanomolar affinities may provide advantages in certain instances, for example, in the degradation efficiency which is correlated with the durability of the ternary complex as shown in FIG. 5D.

B1: RNF43-180 (antibody, V domains shown)
VH: EAQLVESGGGLVRPGRSLKLTCAASGFTFSHYDMAWVRQAPARGLEWVASIGPGGGLTHYRDSVKGRFTVSRDHAESSLYLQMDSLRSEDTATYYCARHYGWSYFDYWGQGVMVTVSS
VL: DIQMTQSPSFLSASLGDSITITCHASQNIKGWLAWYQQKSGNAPELLIYTASGLRSGVPSRFSGSGSGTDYILTISNLQPEDFATYYCQHYQSFPNTFGAGTKLELR
notes: Rat clone; VH/VL only
**Q.** B1 was tested. Which Kd did it give?
**A.** 2.81 nM

B2: RNF43-221 (antibody, V domains shown)
VH: EVQLVESGGGLVQPGRSLKLSCTASGFTLSDYAMAWVRQAPEKGLEWVATISYDGSRTYYGGSVKGRFTISRDNAENILYLQMDSLRSADTATYYCANSATPHYWGQGVMVTVSS
VL: DVVMTQTPASLSLAIGQPASISCKSSQSLLDTSRKTFLNWILQRPGQSPKRLIYQVSKLYSEVPDRFSGSGSETEFTLKISRVEAEDLGVYYCWQGTHFPDTFGAGTKLELK
notes: Rat clone; VH/VL only
**Q.** With B2 as the binder, how does the Kd read?
**A.** 51.6 nM

B3: RNF43-170 (antibody, V domains shown)
VH: EVQLVESGGGLVPPGRSLKLSCVASGFTFNDYYMAWVRQAPTKGLEWVASISYEGRRTYYGDSVKGRFTISRDNAKSTLYLQMNSLRSDDTATYYCATHSNYIFDYWGQGVMVTVSS
VL: DIRMTQSPASLSASLGETVNIECLASEDIYSDFAWFQQKPGQSPLLLIYNGNSLQNGVPSRFSGSGSGTQYSLKINSLQSEDVATYFCQQYNNYPPTFGGGTKLELK
notes: Rat clone; VH/VL only
**Q.** For B3, which Kd is on record?
**A.** 76 nM

B4: RNF43-179 (antibody, V domains shown)
VH: B3 VH with P13Q, T42K, S52N, R56S, D89E, Y106N
VL: B3 VL with S53N
notes: Rat clone; VH/VL only
**Q.** How did the Kd turn out when B4 was run?
**A.** 31.7 nM

B5: RNF43-156 (antibody, V domains shown)
VH: EVQLKESGPGLVQPSQTLSLTCTVSGFSLTDYSVYWVRQPPGKGLEWMGVMWRGGTTAYNSALKSRLSISRDTSKSQVFLKMNSLQTEDTAIYYCTRGGKYDGTYYYGWYFDFWGPGTMVTVSS
VL: DVVLTQSPATLSVTPGERISLSCRASESVDTYLYWYQQKPNESPRLLIKYASQSISGIPSRFSGSGSGTDFTLSINGVELEDLSIYYCQQGNSLPLTFGSGTKLEIK
notes: Rat clone; VH/VL only
**Q.** Which Kd does the source give for B5 here?
**A.** 0.209 nM

B6: RNF43-224 (antibody, V domains shown)
VH: B5 VH with T30S, Y35H, R53S, S76N, F79L, K81E
VL: B5 VL with Y34S
notes: Rat clone; VH/VL only
**Q.** How did the Kd turn out when B6 was run?
**A.** 0.584 nM

B7: RNF43-126 (antibody, V domains shown)
VH: EVQLQESGPGLVKPSQSLSLTCSVTGFSITSSHRWNWIRKFPGNKLEWMGYINSAGSTNYNPSLKSRISITRDTSKNQFFLQVNSVTTEDTATYYCTRLGLQYRDFDYWGQGVMVTVSS
VL: DIQMTQSPASLSASLGETISIECRASDDIYSNLAWYQQKSGKSPQLLIYAANRLKDGVPSRFSGSGSGTQYSLKISGMQTEDEGDYFCLQASKFPLTFGSGTKLEIK
notes: Rat clone; VH/VL only
**Q.** For B7, which Kd is on record?
**A.** 1.75 nM

B8: RNF43-217 (antibody, V domains shown)
VH: B7 VH with I68V, T74A
VL: B7 VL with Q79E
notes: Rat clone; VH/VL only
**Q.** B8 was tested. Which Kd did it give?
**A.** 1.49 nM

B9: RNF43-176 (antibody, V domains shown)
VH: QVQLKESGPGLVQPSQTLSLTCTVSGFSLTSYHVSWVRQPPGKGLEWMGVIWTGGSTAYNSLLKSRLSISRDISKSQVFLKMNSLQTEDTATYYCASQYYGYTSYFDYWGQGVMVTVSS
VL: DIQMTQSPVSLSASPEEIVTITCQASQDIDNWLTWYQQKPGKSPQLLIYSATSLADGIPSRFSGSRSGTQYSLKISRLQIEDTGIYYCLQRYGNPWTFGGGTKLELK
notes: Rat clone; VH/VL only
**Q.** For B9, which Kd is on record?
**A.** 5.71 nM

B10: RNF43-200 (antibody, V domains shown)
VH: B9 VH with V34I, T87A, S97G, Q98S
VL: B9 VL with V9A, T34A, S53R, T69I, S76N, I80V, Y92F
notes: Rat clone; VH/VL only
**Q.** Which Kd does the source give for B10 here?
**A.** 0.539 nM

B11: RNF43-206 (antibody, V domains shown)
VH: B9 VH with Y32F, V34I, V50I, S97G, Q98S, Y100H
VL: B9 VL with V9A, T34A, K39Q, S76N, I80V, G93S
notes: Rat clone; VH/VL only
**Q.** Which Kd does the source give for B11 here?
**A.** 0.58 nM

B12: RNF43-168 (antibody, V domains shown)
VH: B9 VH with T30N, S31R, I51V, N83I, A96V
VL: B9 VL with V9A, I21V, S76D, I80V
notes: Rat clone; VH/VL only
**Q.** How did the Kd turn out when B12 was run?
**A.** 1.36 nM
